Source: US20260176314

Tests used:
FLAG_SERPINB14_HiBiT = molecular target: T1, FLAG_SERPINB14_HiBiT
T1 chain: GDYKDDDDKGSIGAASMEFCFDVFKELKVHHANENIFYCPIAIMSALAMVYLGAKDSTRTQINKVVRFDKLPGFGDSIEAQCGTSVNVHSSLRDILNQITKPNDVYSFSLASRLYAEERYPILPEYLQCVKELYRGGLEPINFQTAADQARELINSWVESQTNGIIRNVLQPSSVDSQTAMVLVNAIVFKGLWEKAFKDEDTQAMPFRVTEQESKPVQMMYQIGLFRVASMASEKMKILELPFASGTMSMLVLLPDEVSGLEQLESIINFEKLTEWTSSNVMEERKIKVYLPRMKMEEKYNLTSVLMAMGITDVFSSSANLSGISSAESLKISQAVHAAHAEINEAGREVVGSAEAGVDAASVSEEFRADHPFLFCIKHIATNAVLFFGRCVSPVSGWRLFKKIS

[1] = molecular target: FLAG_TRX_SPP1 (G158-N314)_HiBiT
[2] = molecular target: T2, bovine αS1 casein (variant C) (no signal peptide)
T2 chain: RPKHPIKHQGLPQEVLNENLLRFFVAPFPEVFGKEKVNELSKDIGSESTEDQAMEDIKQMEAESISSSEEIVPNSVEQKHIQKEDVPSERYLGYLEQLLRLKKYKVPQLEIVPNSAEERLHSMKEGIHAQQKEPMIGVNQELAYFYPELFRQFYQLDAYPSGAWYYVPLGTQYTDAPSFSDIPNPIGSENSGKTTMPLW

[3] = molecular target: T3, bovine αS2 casein (no signal peptide)
T3 chain: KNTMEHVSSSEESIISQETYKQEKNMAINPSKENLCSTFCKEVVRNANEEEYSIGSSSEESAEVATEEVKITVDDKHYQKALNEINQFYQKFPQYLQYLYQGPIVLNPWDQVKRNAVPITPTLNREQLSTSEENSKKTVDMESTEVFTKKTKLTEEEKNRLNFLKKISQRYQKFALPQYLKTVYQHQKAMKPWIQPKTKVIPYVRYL

[4] = molecular target: T4, bovine β casein (variant A2) (no signal peptide)
T4 chain: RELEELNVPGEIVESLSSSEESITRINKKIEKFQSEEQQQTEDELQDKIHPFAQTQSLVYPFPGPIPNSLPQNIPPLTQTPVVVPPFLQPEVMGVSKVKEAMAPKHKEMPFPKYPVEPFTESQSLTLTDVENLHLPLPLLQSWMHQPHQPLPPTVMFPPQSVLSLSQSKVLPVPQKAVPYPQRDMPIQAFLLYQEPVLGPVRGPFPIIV

Sequence of FLAG_TRX_SPP1 (G158-N314)_HiBiT (chain, as listed by the source): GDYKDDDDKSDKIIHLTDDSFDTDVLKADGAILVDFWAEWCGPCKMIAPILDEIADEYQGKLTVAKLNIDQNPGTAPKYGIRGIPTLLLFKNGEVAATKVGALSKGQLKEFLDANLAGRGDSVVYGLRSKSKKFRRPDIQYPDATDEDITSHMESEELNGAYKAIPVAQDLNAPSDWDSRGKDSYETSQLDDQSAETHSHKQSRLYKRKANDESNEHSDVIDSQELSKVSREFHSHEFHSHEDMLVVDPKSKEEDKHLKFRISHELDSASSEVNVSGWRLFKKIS

B1: ScMNN2(M1-S36)_Fam20c(D93-R584)_FLAG (protein)
chain: MLLTKRFSKLFKLTFIVLILCGLFVITNKYMDENTSDFSSDPSSNLSSHSLEKLPPAAEPAERALRGRDPGALRPHDPAHRPLLRDPGPRRSESPPGPGGDASLLARLFEHPLYRVAVPPLTEEDVLFNVNSDTRLSPKAAENPDWPHAGAEGAEFLSPGEAAVDSYPNWLKFHIGINRYELYSRHNPAIEALLHDLSSQRITSVAMKSGGTQLKLIMTFQNYGQALFKPMKQTREQETPPDFFYFSDYERHNAEIAAFHLDRILDFRRVPPVAGRMVNMTKEIRDVTRDKKLWRTFFISPANNICFYGECSYYCSTEHALCGKPDQIEGSLAAFLPDLSLAKRKTWRNPWRRSYHKRKKAEWEVDPDYCEEVKQTPPYDSSHRILDVMDMTIFDFLMGNMDRHHYETFEKFGNETFIIHLDNGRGFGKYSHDELSILVPLQQCCRIRKSTYLRLQLLAKEEYKLSLLMAESLRGDQVAPVLYQPHLEALDRRLRVVLKAVRDCVERNGLHSVVDDDLDTEHRAASARDYKDDDDK
What does the source list for B1?
phosphorylation sites detected by LC-MS/MS after co-expression in Pichia pastoris (FLAG_SERPINB14_HiBiT): T92, S99, S165, T202, S206, S222, S271, and S345; Phosphorylation [1]: Yes; phosphorylation sites detected by LC-MS/MS after co-expression in Kluyveromyces lactis [2]: S56, S61, S63, T64, S79, S81, S82, S83, S90, S103, and S130; phosphorylation sites detected by LC-MS/MS after co-expression in Kluyveromyces lactis [3]: S23, S24, S25, S46, S52, S71, S72, S73, S76, T145, S146, S150, S158, and T159; phosphorylation sites detected by LC-MS/MS after co-expression in Kluyveromyces lactis [4]: S30, S32, S33, S34, S37, T39, S50, at T56

B2: Fam20c(M1-R584)_FLAG (protein)
chain: MKMMLVRRFRVLILMVFLVACALHIALDLLPRLERRGARPSGEPGCSCAQPAAEVAAPGWAQVRGRPGEPPAASSAAGDAGWPNKHTLRILQDFSSDPSSNLSSHSLEKLPPAAEPAERALRGRDPGALRPHDPAHRPLLRDPGPRRSESPPGPGGDASLLARLFEHPLYRVAVPPLTEEDVLFNVNSDTRLSPKAAENPDWPHAGAEGAEFLSPGEAAVDSYPNWLKFHIGINRYELYSRHNPAIEALLHDLSSQRITSVAMKSGGTQLKLIMTFQNYGQALFKPMKQTREQETPPDFFYFSDYERHNAEIAAFHLDRILDFRRVPPVAGRMVNMTKEIRDVTRDKKLWRTFFISPANNICFYGECSYYCSTEHALCGKPDQIEGSLAAFLPDLSLAKRKTWRNPWRRSYHKRKKAEWEVDPDYCEEVKQTPPYDSSHRILDVMDMTIFDFLMGNMDRHHYETFEKFGNETFIIHLDNGRGFGKYSHDELSILVPLQQCCRIRKSTYLRLQLLAKEEYKLSLLMAESLRGDQVAPVLYQPHLEALDRRLRVVLKAVRDCVERNGLHSVVDDDLDTEHRAASARDYKDDDDK
For B2, which “phosphorylation sites detected by LC-MS/MS after co-expression in Kluyveromyces lactis” value [2] is on record?
The value was “S61, S63, T64, S79, S81, S82, S83, S90, S103, and S130”.

And the “phosphorylation sites detected by LC-MS/MS after co-expression in Kluyveromyces lactis” value [3]?
Its value is “S24, S25, S46, T145, S146, S150, S158, T159, and T163”.

And the “phosphorylation sites detected by LC-MS/MS after co-expression in Kluyveromyces lactis” value [4]?
The value was “S30, S32, S33, S34, T39, S50, and T56”.
